In patent US20250101107A1 (REPERTOIRE IMMUNE MEDICINES, published 2025):
Substitutions are numbered along the chain they refer to. In names and notes the source's numbering stands. One block for each binder: values may come before it.

What was measured:
[1] = molecular target: T1, human CD8 on human T cells (human, UniProt P01732 22-235; P10966 22-210); test: flow cytometry, 5 nM antibody on human CD8+ T cells, anti-human IgG detection (MFI AF647)
T1 construct: whole, on cells; Target as carried by human CD3+/CD8+ T cells, PBMCs or MART-1-specific T cells; the mice were immunized with human CD8a; also called hCD8; CD8 expressed on the cell surface
Description: The 16 above-referenced humanized 03A01-derived anti-CD8 antibodies were screened for their ability to bind human CD8 by evaluating binding to CD8⁺ T cells. The non-humanized parent (“03-Parent”) and the non-humanized parent comprising a heavy chain D64E liability mutation (“03-Parent-VH-D64E”) were used as controls. […] Cells were washed with 1 X phosphate buffered saline (PBS) containing 1 mg/mL bovine serum albumin (PBS/BSA) and then stained with a 1:100 dilution of DyLight650-conjugated anti-human IgG H+L polyclonal antibody (ThermoFisher cat. no. Sa5-10129) in PBS/BSA. Following a 20-30 min incubation at 4° C., the cells were washed once with PBS/BSA, and then resuspended in PBS/BSA for analysis on a FACSCelesta using Diva software (BD Biosciences). The resulting data were analyzed using FlowJo. Data were quantified and reported as Max fluorescence intensity (MFI) of human IgG-Fc. […] Complete replacement of the LCDR1 (antibodies comprising VK4) eliminated binding to the CD8+ T cells.

[2] = molecular target: T1, human CD8 on human T cells; test: cell-based or functional assay
[3] = molecular target: T1, human CD8 on human T cells; test: flow cytometry, 0.2 nM antibody on human CD8+ T cells, anti-human IgG detection (MFI AF647)
Description: The 24 humanized 02A01-derived anti-CD8 antibodies (excluding 02A01-VK3(D30E/N35Q)) were screened for their ability to bind human CD8 by evaluating binding to CD8+ T cells. The non-humanized parent (“02-Parent”) and the non-humanized parent comprising a heavy chain M39L liability mutation (“02-Parent-VH-M39L”) were used as controls. […] Cells were washed with 1×phosphate buffered saline (PBS) containing 1 mg/mL bovine serum albumin (PBS/BSA) and then stained with a 1:100 dilution of DyLight650-conjugated anti-human IgG H+L polyclonal antibody (ThermoFisher cat. no. Sa5-10129) in PBS/BSA. Following a 20-30 min incubation at 4° C., the cells were washed once with PBS/BSA, and then resuspended in PBS/BSA for analysis on a FACSCelesta using Diva software (BD Biosciences). The resulting data were analyzed using FlowJo. Data were quantified and reported as Max fluorescence intensity (MFI) of human IgG-Fc. […] Complete replacement of the HCDR1 (antibodies comprising VH5) eliminated binding to the CD8+ T cells.

T1 sequence (P01732 22-235, chain 1 of 2): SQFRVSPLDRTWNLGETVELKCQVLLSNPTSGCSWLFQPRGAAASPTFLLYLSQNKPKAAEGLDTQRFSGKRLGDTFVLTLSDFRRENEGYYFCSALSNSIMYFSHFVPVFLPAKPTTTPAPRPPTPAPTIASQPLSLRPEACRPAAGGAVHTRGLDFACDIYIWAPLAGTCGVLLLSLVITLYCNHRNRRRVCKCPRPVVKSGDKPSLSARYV
T1 sequence (P10966 22-210, chain 2 of 2): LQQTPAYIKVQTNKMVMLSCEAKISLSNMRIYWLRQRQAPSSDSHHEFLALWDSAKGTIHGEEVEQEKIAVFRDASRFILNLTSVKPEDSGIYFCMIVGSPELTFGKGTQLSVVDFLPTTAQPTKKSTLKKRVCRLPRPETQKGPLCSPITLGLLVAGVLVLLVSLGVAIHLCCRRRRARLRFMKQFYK

B1: 03-Parent-VH-D64E (antibody, V domains shown)
VH: DVQFQESGPGLVKPSQSLSLTCTVTGYSITSDFAWNWIRQFPGNELEWMGYISYSGETNYNPSLRSRISITRDTSKNQFFLQLDSVTTEDTATYYCTIRGYYTDSAFVFWGQGTLVTVSA
VL: DIQMTQSSSYLSVSLGGRVTITCKASDHINNWLAWYQQKPGNAPRLLISGATSLETGVPSRFTGSGSGLDYTLSITSLQTEDVATYYCQQYWNSPFTFGSGTKLEIK
notes: also called 03A01 VH-D64E
binding result [1]: binds

B3: 02-Parent-VH-M39L (antibody, V domains shown)
VH: EVQLQQSGPELVKPGASLKISCKASGYTFTDFTLHWVKQSHGKSLEWIGLVNPNNGGNIYNQNFKGKATLTVDTSSSTAYMELRSLTSEDSSVYYCGRVPLYTSHGMDYWGQGTSVTVSS
VL: DIVLTQSPAFLAVSLGQRATISCRASESVDSYDINSMHWYQQKPGQPPKLLIYRASHLQSGIPARFSGSGSRTDFTLTINFVEADDVATYYCQQSNEDPLTFGAGTKLELK
notes: also called murine 02A01 VH-M39L
binding result [3]: binds

B4: 02A01-IgG-IL12 (LC) (other, not shown: a dimerising Fc or GST)
heavy: B3 VH with L34M
light: B3 VL
EC50 for stimulation of pSTAT4 signaling, CD8+ T cells in pre-activated human PBMCs [2]: 2.72 pM

B5: humanized 03A01-VH1-VK1 (antibody, V domains shown)
VH: EVQFQESGPGLVKPSQTLSLTCTVTGYSITSDFAWNWIRQPPGKELEWMGYISYSGDTNYNPSLRSRITISRDTSKNQFSLKLSSVTAADTATYYCTIRGYYTDSAFVFWGQGTLVTVSS
VL: DIQMTQSSSTLSVSLGDRVTITCKASDHINNWLAWYQQKPGKAPRLLISGATSLETGVPSRFSGSGSGLEYTLTISSLQPDDFATYYCQQYWNSPFTFGQGTKLEIK
binding result [1]: binds

B6: humanized 03A01-VH2-VK1 (antibody, V domains shown)
VH: B5 VH with T25S, E45G, T93V
VL: B5 VL
binding result [1]: binds

B7: humanized 03A01-VH4-VK1 (antibody, V domains shown)
VH: B5 VH with T25S, E45G, M49I, N59Y, R65K, I68V, T93V
VL: B5 VL
binding result [1]: binds

B10: humanized 02A01-VH2-VK2 (antibody, V domains shown)
VH: EVQLVQSGAEVKKPGATLKISCKASGYTFTDFTMHWVQQAPGKGLEWIGLVNPNNGGNIYNQNFKGRATLTVDTSTSTAYMELSSLRSEDTSVYYCGRVPLYTSHGMDYWGQGTLVTVSS
VL: EIVLTQSPATLSVSPGERATISCRASESVDSYDINSMHWYQQKPGQAPRLLIYRASHLQSGIPARFSGSGSRTDFTLTISSVEPEDFATYYCQQSNEDPLTFGQGTKLEIK
binding result [3]: binds

B11: humanized 02A01-VH3-VK1 (antibody, V domains shown)
VH: B10 VH with N61A, Q62E, N63K, K65Q
VL: B10 VL with A47P
binding result [3]: binds

B12: humanized 02A01-VH3-VK2 (antibody, V domains shown)
VH: B10 VH with N61A, Q62E, N63K, K65Q
VL: B10 VL
binding result [3]: binds

B13: humanized 02A01-VH2-VK1 (antibody, V domains shown)
VH: B10 VH
VL: B10 VL with A47P
binding result [3]: binds

Continued, values first:

EC50 for stimulation of pSTAT4 signaling, CD8+ T cells in pre-activated human PBMCs [2]: 14.7 pM
B2: 03A01-IgG-IL12 (LC) (other, not shown: a dimerising Fc or GST)
heavy: B1 VH with E57D
light: B1 VL

binding result [1]: binds
B8: humanized 03A01-VH4-VK3 (antibody, V domains shown)
VH: B5 VH with T25S, E45G, M49I, N59Y, R65K, I68V, T93V
VL: B5 VL with S8P, V13A, L15V, R45K

binding result [1]: binds
B9: humanized 03A01-VH4-VK2 (antibody, V domains shown)
VH: B5 VH with T25S, E45G, M49I, N59Y, R65K, I68V, T93V
VL: B5 VL with S8P, L15V, R45K

binding result [3]: binds
B14: humanized 02A01-VH1-VK2 (antibody, V domains shown)
VH: B10 VH with A9P, K12V, Q38K, G44S
VL: B10 VL

binding result [3]: binds
B15: humanized 02A01-VH1-VK3 (antibody, V domains shown)
VH: B10 VH with A9P, K12V, Q38K, G44S
VL: B10 VL with V13L, V82L

binding result [3]: binds
B16: humanized 02A01-VH1-VK1 (antibody, V domains shown)
VH: B10 VH with A9P, K12V, Q38K, G44S
VL: B10 VL with A47P
